In paper PMC2836571 (Nucleic Acids Research, 2009):

Biological target: the molecule itself
Assay: SEC

B1: ArdB from the E. coli K12 CP4-6 prophage (yafX) (natural protein, E. coli K12/CP4-6 prophage, UniProt P75676 1-152, looked up)
chain: MTTQTQHDLAPANQPEFELTVTPVPDEQRIDFWPQYFGAIPQWLLLEPHIFAWMDRFCEGYSGGIWSFYTLSNGGAFMSPEPDNDETWRLFNCLNGNDAQMSAEAAGIAVCLIAYSHHACRTECDAMTAHYYRLREYAMQHPEAHAILRIID
- stoichiometry N: 2
